The supplement of paper PMC6757056
± gives the standard deviation of the averaged measurements.

B1: library; a variant is named by its letters at N, in order (parent)
chain: GCUGUCACCGAGAAACUGUGAAGUAUAUCUUAAACCUGGGCACUUAAAAGAUAUAUGGAGUUAGUAGUGCAACCUGCUCGGUCUGAUGAGUCCNNNNNNGGACGAAACAGC

Tests used:
cyclic di-GMP [1] = variants of: B1; test: FACS-Seq fitted mean relative fluorescence mCherry/BFP without ligand (log10 relative fluorescence); HEK293T; ligand: cyclic di-GMP (c-di-GMP-II aptamer); higher = higher reporter protein expression; details: ligand present: no
In short: (§1)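 Enriched HEK293T cells carrying, by lentivirus, an mCherry reporter with the ribozyme switch and an EF1α-BFP marker spent 48 h with or without ligand and were sorted into 6 bins by mCherry/BFP. MiSeq sequencing of PCR-amplified bin genomic DNA gave bin counts. Fluorescence was calculated as the fitted normal mean of those counts. Counts were binned on log10(mCherry/BFP), and means were scaled to five spiked-in control ribozymes.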

cyclic di-GMP [2] = variants of: B1; test: normalized RNA/DNA level without ligand (relative to sTRSVctl = 100) (log10 (% of sTRSVctl)); HEK293T; ligand: cyclic di-GMP (c-di-GMP-II aptamer); higher = less ribozyme self-cleavage, higher mRNA level; details: reporter: mCherry (pCS4076), ligand present: no
Experimental: (§2)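 Hammerhead (sTRSV) ribozyme switch libraries with a ligand aptamer grafted on stem I and a randomized N4-6 loop II, cloned into the 3' UTR of mCherry and transiently transfected into HEK293T cells; RNA-Seq 72 h post transfection with ligand added 1 h before transfection; RNA read count / plasmid DNA read count normalized to the non-cleaving sTRSVctl (x100), log10; sequences with >100 DNA reads. FACS-Seq: lentiviral library sorted into 6 bins after 48 h ligand, log-normal fit mean of mCherry/BFP scaled to controls. Printed sequences are partial switch sequences.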

cyclic di-GMP [3] = variants of: B1; test: FACS-Seq fitted mean relative fluorescence mCherry/BFP with ligand (log10 relative fluorescence); HEK293T; ligand: cyclic di-GMP (c-di-GMP-II aptamer); ligand concentration (+) FACS-Seq: 1 mM; higher = higher reporter protein expression; details: ligand present: yes
In short: as §1

cyclic di-GMP [4] = variants of: B1; test: normalized RNA/DNA level with ligand (relative to sTRSVctl = 100) (log10 (% of sTRSVctl)); HEK293T; ligand: cyclic di-GMP (c-di-GMP-II aptamer); ligand concentration (+) RNA-Seq: 1 mM; higher = less ribozyme self-cleavage, higher mRNA level; details: reporter: mCherry (pCS4076), ligand present: yes
Experimental: as §2

| Variant | FACS-Seq fitted mean (log10) (cyclic di-GMP [1]) | normalized RNA/DNA level without ligand (log10) (cyclic di-GMP [2]) | FACS-Seq fitted mean (log10) (cyclic di-GMP [3]) | normalized RNA/DNA level with ligand (log10) (cyclic di-GMP [4]) |
| --- | --- | --- | --- | --- |
| GCUGUCACCGAGAAACUGUGAAGUAUAUCUUAAACCUGGGCACUUAAAAGAUAUAUGGAGUUAGUAGUGCAACCUGCUCGGUCUGAUGAGUCCACACUAGGACGAAACAGC | -0.717 ± 0.027 | 1.44 ± 0.038 | -0.414 ± 0.055 | 1.66 ± 0.15 |
| GCUGUCACCGAGAAACUGUGAAGUAUAUCUUAAACCUGGGCACUUAAAAGAUAUAUGGAGUUAGUAGUGCAACCUGCUCGGUCUGAUGAGUCCCAUUAAGGACGAAACAGC | -0.604 ± 0.025 | 1.26 ± 0.11 | -0.31552 ± 2.8e-05 | 1.46 ± 0.12 |
| GCUGUCACCGAGAAACUGUGAAGUAUAUCUUAAACCUGGGCACUUAAAAGAUAUAUGGAGUUAGUAGUGCAACCUGCUCGGUCUGAUGAGUCCGUAAGAGGACGAAACAGC | -0.617 ± 0.027 | 1.46 ± 0.061 | -0.308 ± 0.026 | 1.61 ± 0.13 |
| GCUGUCACCGAGAAACUGUGAAGUAUAUCUUAAACCUGGGCACUUAAAAGAUAUAUGGAGUUAGUAGUGCAACCUGCUCGGUCUGAUGAGUCCGUAAUGGGACGAAACAGC | -0.57 ± 0.093 | 1.63 ± 0.061 | -0.481 ± 0.029 | 1.75 ± 0.066 |
| GCUGUCACCGAGAAACUGUGAAGUAUAUCUUAAACCUGGGCACUUAAAAGAUAUAUGGAGUUAGUAGUGCAACCUGCUCGGUCUGAUGAGUCCAAGGUGGGACGAAACAGC | -0.189 ± 0.0061 | 1.51 ± 0.072 | 0.04 ± 0.083 | 1.69 ± 0.11 |
| GCUGUCACCGAGAAACUGUGAAGUAUAUCUUAAACCUGGGCACUUAAAAGAUAUAUGGAGUUAGUAGUGCAACCUGCUCGGUCUGAUGAGUCCAAUGGCGGACGAAACAGC | -0.236 ± 0.066 | 1.65 ± 0.033 | 0.153 ± 0.011 | 1.81 ± 0.061 |
| GCUGUCACCGAGAAACUGUGAAGUAUAUCUUAAACCUGGGCACUUAAAAGAUAUAUGGAGUUAGUAGUGCAACCUGCUCGGUCUGAUGAGUCCCCUUCUGGACGAAACAGC | -0.619 ± 0.0079 | 1.6166 ± 0.0015 | -0.341 ± 0.038 | 1.8 ± 0.063 |
| GCUGUCACCGAGAAACUGUGAAGUAUAUCUUAAACCUGGGCACUUAAAAGAUAUAUGGAGUUAGUAGUGCAACCUGCUCGGUCUGAUGAGUCCCCAUAAGGACGAAACAGC | -0.533 ± 0.16 | 1.44 ± 0.14 | -0.252 ± 0.0063 | 1.67 ± 0.079 |
| GCUGUCACCGAGAAACUGUGAAGUAUAUCUUAAACCUGGGCACUUAAAAGAUAUAUGGAGUUAGUAGUGCAACCUGCUCGGUCUGAUGAGUCCAAACAAGGACGAAACAGC | -0.921 ± 0.12 | 1.44 ± 0.051 | -0.77 ± 0.014 | 1.62 ± 0.1 |
| GCUGUCACCGAGAAACUGUGAAGUAUAUCUUAAACCUGGGCACUUAAAAGAUAUAUGGAGUUAGUAGUGCAACCUGCUCGGUCUGAUGAGUCCAGAACUGGACGAAACAGC | -0.833 ± 0.11 | 1.68 ± 0.031 | -0.561 ± 0.02 | 1.82 ± 0.11 |
| GCUGUCACCGAGAAACUGUGAAGUAUAUCUUAAACCUGGGCACUUAAAAGAUAUAUGGAGUUAGUAGUGCAACCUGCUCGGUCUGAUGAGUCCAUCUGCGGACGAAACAGC | -0.0609 ± 0.046 | 1.731 ± 0.0043 | 0.176 ± 0.085 | 1.88 ± 0.14 |
| GCUGUCACCGAGAAACUGUGAAGUAUAUCUUAAACCUGGGCACUUAAAAGAUAUAUGGAGUUAGUAGUGCAACCUGCUCGGUCUGAUGAGUCCAACUAAGGACGAAACAGC | -0.473 ± 0.029 | 1.51 ± 0.035 | -0.168 ± 0.1 | 1.74 ± 0.11 |
| GCUGUCACCGAGAAACUGUGAAGUAUAUCUUAAACCUGGGCACUUAAAAGAUAUAUGGAGUUAGUAGUGCAACCUGCUCGGUCUGAUGAGUCCCCAGCAGGACGAAACAGC | -0.507 ± 0.13 | 1.73 ± 0.021 | -0.329 ± 0.02 | 1.86 ± 0.098 |
